Reference: article PMC6999842 (mAbs, 2020)

B1: FITC-labeled IgG2a(MG) (antibody, V domains shown)
VH: QVQLQQSGPELVKPGASVKISCKASGYTFSGSWMNWVKQRPGQGLEWIGRIYPGDGETNYNGKFKDKATLTADKSSTTAYMELSSLTSVDSAVYFCARIYGNNVYFDVWGAGTTVTVSS
VL: QIVLTQSPAIMSASPGERVTMTCSARSSISFMYWYQQKPGSSPRLLIYDTSNLASGVPVRFSGSGSGTSYSLTISRMEAEDAATYYCQQWSSYPLTFGSGTKLELK
B2: IgG2a(K), murine anti-A33 antibody K in murine IgG2a format (antibody, V domains shown)
VH: EVKLVESGGGLVKPGGSLKLSCAASGFAFSTYDMSWVRQTPEKRLEWVATISSGGSYTYYLDSVKGRFTISRDSARNTLYLQMSSLRSEDTALYYCAPTTVVPFAYWGQGTLVTVSA
VL: DIVMTQSQKFMSTSVGDRVSITCKASQNVRTVVAWYQQKPGQSPKTLIYLASNRHTGVPDRFTGSGSGTDFTLTISNVQSEDLADYFCLQHWSYPLTFGSGTKLEVK
B3: FITC-labeled IgG2a(K) (antibody, V domains shown)
VH: B2 VH
VL: B2 VL

Legend:
[1] = target: T1, human A33 transmembrane glycoprotein expressed on stably transfected murine colorectal carcinoma cells (Homo sapiens (Human)., UniProt Q99795); test: immunostaining of cells or tissue
T1 sequence (Q99795 22-319): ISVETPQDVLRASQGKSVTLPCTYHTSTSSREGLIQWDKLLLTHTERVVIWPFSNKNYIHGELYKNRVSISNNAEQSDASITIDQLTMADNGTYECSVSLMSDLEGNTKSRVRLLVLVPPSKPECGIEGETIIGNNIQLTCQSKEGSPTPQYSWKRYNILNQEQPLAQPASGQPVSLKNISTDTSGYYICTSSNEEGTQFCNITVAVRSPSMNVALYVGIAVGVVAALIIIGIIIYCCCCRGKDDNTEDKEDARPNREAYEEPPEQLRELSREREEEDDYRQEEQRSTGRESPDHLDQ

[2] = target: A33 in human colon and human colon adenocarcinoma tissue sections (Homo sapiens (Human)., UniProt Q99795); test: immunostaining of cells or tissue
Sequence of A33 in human colon and human colon adenocarcinoma tissue sections (Q99795 22-319): as above

[3] = target: T1, human A33 transmembrane glycoprotein …; test: flow cytometry on cells

| Binder | binding result [1] | binding result [2] | binding result [3] |
| --- | --- | --- | --- |
| B1 | binds |  |  |
| B2 |  | binds | binds |
| B3 | binds |  |  |
